Measurements taken from IntAct's records for PubMed 16401726.

B1: UV excision repair protein RAD23 (Saccharomyces cerevisiae), P32628 (parent)
chain: MVSLTFKNFKKEKVPLDLEPSNTILETKTKLAQSISCEESQIKLIYSGKVLQDSKTVSECGLKDGDQVVFMVSQKKSTKTKVTEPPIAPESATTPGRENSTEASPSTDASAAPAATAPEGSQPQEEQTATTERTESASTPGFVVGTERNETIERIMEMGYQREEVERALRAAFNNPDRAVEYLLMGIPENLRQPEPQQQTAAAAEQPSTAATTAEQPAEDDLFAQAAQGGNASSGALGTTGGATDAAQGGPPGSIGLTVEDLLSLRQVVSGNPEALAPLLENISARYPQLREHIMANPEVFVSMLLEAVGDNMQDVMEGADDMVEGEDIEVTGEAAAAGLGQGEGEGSFQVDYTPEDDQAISRLCELGFERDLVIQVYFACDKNEEAAANILFSDHAD
partner: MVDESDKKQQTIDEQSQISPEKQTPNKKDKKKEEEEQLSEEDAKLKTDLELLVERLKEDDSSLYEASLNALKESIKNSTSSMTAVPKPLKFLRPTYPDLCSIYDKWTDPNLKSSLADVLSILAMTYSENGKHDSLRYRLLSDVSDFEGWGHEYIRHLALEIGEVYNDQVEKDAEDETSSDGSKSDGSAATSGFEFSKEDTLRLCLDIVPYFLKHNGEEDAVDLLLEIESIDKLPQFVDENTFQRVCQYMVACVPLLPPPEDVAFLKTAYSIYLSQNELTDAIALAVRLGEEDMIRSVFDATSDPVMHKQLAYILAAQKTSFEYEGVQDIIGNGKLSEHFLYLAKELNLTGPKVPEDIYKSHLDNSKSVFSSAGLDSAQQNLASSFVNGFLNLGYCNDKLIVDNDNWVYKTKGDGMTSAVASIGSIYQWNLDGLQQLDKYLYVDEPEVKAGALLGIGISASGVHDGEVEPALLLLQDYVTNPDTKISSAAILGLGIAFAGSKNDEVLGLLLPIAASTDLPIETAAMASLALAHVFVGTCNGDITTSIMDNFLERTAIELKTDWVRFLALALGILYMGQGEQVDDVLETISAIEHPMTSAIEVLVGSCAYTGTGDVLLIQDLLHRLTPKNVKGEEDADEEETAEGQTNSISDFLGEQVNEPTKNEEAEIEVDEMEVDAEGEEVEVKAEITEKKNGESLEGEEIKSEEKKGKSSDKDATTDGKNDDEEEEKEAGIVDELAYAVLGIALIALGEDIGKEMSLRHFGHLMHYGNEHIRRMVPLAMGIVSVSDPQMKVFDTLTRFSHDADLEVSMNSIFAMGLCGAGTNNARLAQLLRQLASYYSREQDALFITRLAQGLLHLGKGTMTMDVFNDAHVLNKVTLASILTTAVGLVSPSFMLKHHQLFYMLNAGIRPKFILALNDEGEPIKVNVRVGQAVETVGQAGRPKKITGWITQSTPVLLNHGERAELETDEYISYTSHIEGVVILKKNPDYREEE
B2: UV excision repair protein RAD23 (Saccharomyces cerevisiae), P32628 (parent)
chain: B1 chain
partner: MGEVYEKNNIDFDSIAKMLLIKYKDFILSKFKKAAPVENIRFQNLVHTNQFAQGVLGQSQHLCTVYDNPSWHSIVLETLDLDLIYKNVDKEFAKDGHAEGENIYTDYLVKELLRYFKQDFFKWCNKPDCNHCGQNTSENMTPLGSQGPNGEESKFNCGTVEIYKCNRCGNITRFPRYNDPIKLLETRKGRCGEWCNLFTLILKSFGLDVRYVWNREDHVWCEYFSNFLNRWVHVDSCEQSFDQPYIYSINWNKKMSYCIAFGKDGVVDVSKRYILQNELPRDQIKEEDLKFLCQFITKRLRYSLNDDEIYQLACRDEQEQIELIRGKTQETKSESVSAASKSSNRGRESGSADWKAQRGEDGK
B3: "Peptide-N(4)-(N-acetyl-beta-glucosaminyl)asparagine amidase" (Saccharomyces cerevisiae), Q02890 (parent)
chain: B2 partner
partner: B1 chain
B4: UV excision repair protein RAD23 (Saccharomyces cerevisiae), P32628 (parent)
chain: B1 chain
partner: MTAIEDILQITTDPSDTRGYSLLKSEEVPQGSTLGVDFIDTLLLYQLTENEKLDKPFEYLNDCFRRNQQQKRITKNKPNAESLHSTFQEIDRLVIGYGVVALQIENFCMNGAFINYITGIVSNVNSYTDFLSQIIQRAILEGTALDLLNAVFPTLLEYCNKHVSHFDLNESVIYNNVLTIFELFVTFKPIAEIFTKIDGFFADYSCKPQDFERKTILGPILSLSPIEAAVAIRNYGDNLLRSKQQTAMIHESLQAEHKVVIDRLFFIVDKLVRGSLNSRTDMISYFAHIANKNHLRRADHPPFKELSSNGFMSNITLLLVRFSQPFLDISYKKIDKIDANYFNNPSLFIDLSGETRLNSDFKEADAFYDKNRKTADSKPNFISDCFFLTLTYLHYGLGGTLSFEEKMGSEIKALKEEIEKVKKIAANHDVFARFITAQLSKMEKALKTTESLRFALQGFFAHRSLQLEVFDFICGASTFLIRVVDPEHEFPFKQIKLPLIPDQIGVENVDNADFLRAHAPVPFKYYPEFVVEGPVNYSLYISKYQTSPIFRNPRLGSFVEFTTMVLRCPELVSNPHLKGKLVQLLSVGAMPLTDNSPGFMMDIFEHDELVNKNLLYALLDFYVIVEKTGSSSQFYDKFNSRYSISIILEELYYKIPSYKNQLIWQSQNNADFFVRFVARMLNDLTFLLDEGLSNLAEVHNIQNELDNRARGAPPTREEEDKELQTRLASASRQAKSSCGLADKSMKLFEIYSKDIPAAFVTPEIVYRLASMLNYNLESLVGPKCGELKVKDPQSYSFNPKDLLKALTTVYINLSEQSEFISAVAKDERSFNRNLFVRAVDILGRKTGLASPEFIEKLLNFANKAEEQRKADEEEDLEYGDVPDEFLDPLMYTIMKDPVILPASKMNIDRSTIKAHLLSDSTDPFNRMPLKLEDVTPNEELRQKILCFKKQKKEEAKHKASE
B5: UV excision repair protein RAD23 (Saccharomyces cerevisiae), P32628 (parent)
chain: B1 chain
partner: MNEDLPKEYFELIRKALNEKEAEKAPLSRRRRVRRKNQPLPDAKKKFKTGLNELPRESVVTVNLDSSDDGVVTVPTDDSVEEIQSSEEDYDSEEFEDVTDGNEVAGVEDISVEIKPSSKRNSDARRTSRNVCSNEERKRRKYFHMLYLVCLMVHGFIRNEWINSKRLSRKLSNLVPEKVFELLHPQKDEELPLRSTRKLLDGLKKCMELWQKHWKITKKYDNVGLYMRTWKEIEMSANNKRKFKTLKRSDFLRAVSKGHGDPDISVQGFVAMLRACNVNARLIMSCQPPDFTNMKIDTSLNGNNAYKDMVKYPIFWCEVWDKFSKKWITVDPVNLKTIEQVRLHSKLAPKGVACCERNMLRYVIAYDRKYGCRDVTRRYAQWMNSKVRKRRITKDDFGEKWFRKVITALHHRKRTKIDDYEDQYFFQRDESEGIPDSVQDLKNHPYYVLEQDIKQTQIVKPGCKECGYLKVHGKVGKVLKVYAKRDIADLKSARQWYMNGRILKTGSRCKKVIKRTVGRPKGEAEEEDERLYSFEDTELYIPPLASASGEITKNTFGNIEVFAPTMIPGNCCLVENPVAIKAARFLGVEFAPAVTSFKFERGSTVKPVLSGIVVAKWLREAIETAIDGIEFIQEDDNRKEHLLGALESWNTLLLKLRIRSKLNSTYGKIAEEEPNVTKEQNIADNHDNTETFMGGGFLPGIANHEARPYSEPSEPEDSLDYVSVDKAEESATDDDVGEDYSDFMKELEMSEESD

Variants of: B1
Conditions: with rpn1_yeast RPN1, P38764

effect of a mutation on the interaction | Variant
with no effect | MVSLTFKNFKKEKVPLDLEPSNTILETKTKLAQSISCEESQIKLIYSGKVLQDSKTVSECGLKDGDQVVFMVSQKKSTKTKVTEPPIAPESATTPGRENSTEASPSTDASAAPAATAPEGSQPQEEQTATTERTESASTPGFVVGTERNETIERIMEMGYQREEVERALRAAFNNPDRAVEYLLMGIPENLRQPEPQQQTAAAAEQPSTAATTAEQPAEDDLFAQAAQGGNASSGALGTTGGATDAAQGGPPGSIGLTVEDLLSLRQVVSGNPEAQAPLLENISARYPQLREHIMANPEVFVSMLLEAVGDNMQDVMEGADDMVEGEDIEVTGEAAAAGLGQGEGEGSFQVDYTPEDDQAISRLCELGFERDLVIQVYFACDKNEEAAANILFSDHAD [L276Q]
with no effect | MVSLTFKNFKKEKVPLDLEPSNTILETKTKLAQSISCEESQIKLIYSGKVLQDSKTVSECGLKDGDQVVFMVSQKKSTKTKVTEPPIAPESATTPGRENSTEASPSTDASAAPAATAPEGSQPQEEQTATTERTESASTPGFVVGTERNETIERIMEMGYQREEVERALRAAFNNPDRAVEYALMGIPENLRQPEPQQQTAAAAEQPSTAATTAEQPAEDDLFAQAAQGGNASSGALGTTGGATDAAQGGPPGSIGLTVEDLLSLRQVVSGNPEALAPLLENISARYPQLREHIMANPEVFVSMLLEAVGDNMQDVMEGADDMVEGEDIEVTGEAAAAGLGQGEGEGSFQVDYTPEDDQAISRLCELGFERDLVIQVYFACDKNEEAAANIAFSDHAD [L183A;L392A]

Variants of: B2
Conditions: with png1_yeast PNG1, Q02890

effect of a mutation on the interaction | Variant
with no effect | MVSLTFKNFKKEKVPLDLEPSNTILETKTKLAQSISCEESQIKLIYSGKVLQDSKTVSECGLKDGDQVVFMVSQKKSTKTKVTEPPIAPESATTPGRENSTEASPSTDASAAPAATAPEGSQPQEEQTATTERTESASTPGFVVGTERNETIERIMEMGYQREEVERALRAAFNNPDRAVEYALMGIPENLRQPEPQQQTAAAAEQPSTAATTAEQPAEDDLFAQAAQGGNASSGALGTTGGATDAAQGGPPGSIGLTVEDLLSLRQVVSGNPEALAPLLENISARYPQLREHIMANPEVFVSMLLEAVGDNMQDVMEGADDMVEGEDIEVTGEAAAAGLGQGEGEGSFQVDYTPEDDQAISRLCELGFERDLVIQVYFACDKNEEAAANIAFSDHAD [L183A;L392A]
disrupting interaction strength | MVSLTFKNFKKEKVPLDLEPSNTILETKTKLAQSISCEESQIKLIYSGKVLQDSKTVSECGLKDGDQVVFMVSQKKSTKTKVTEPPIAPESATTPGRENSTEASPSTDASAAPAATAPEGSQPQEEQTATTERTESASTPGFVVGTERNETIERIMEMGYQREEVERALRAAFNNPDRAVEYLLMGIPENLRQPEPQQQTAAAAEQPSTAATTAEQPAEDDLFAQAAQGGNASSGALGTTGGATDAAQGGPPGSIGLTVEDLLSLRQVVSGNPEAQAPLLENISARYPQLREHIMANPEVFVSMLLEAVGDNMQDVMEGADDMVEGEDIEVTGEAAAAGLGQGEGEGSFQVDYTPEDDQAISRLCELGFERDLVIQVYFACDKNEEAAANILFSDHAD [L276Q]

Variants of: B3
Conditions: with rad23_yeast RAD23, P32628

effect of a mutation on the interaction | Variant
with no effect | MGEVYEKNNIDFDSIAKMLLIKYKDFILSKFKKAAPVENIRFQNLVHTNQFAQGVLGQSQHLCTVYDNPSWHSIVLETLDLDLIYKNVDKEFAKDGHAEGENIYTDYLVKELLRYFKQDFFKWCNKPDCNHCGQNTSENMTPLGSQGPNGEESKFNCGTVEIYKCNRCGNITRFPRYNDPIKLLETRKGRCGEWCNLFTLILKSFGLDVRYVWNREDYVWCEYFSNFLNRWVHVDSCEQSFDQPYIYSINWNKKMSYCIAFGKDGVVDVSKRYILQNELPRDQIKEEDLKFLCQFITKRLRYSLNDDEIYQLACRDEQEQIELIRGKTQETKSESVSAASKSSNRGRESGSADWKAQRGEDGK [H218Y]

Variants of: B4
Conditions: with ufd2_yeast UFD2, P54860

effect of a mutation on the interaction | Variant
with no effect | MVSLTFKNFKKEKVPLDLEPSNTILETKTKLAQSISCEESQIKLIYSGKVLQDSKTVSECGLKDGDQVVFMVSQKKSTKTKVTEPPIAPESATTPGRENSTEASPSTDASAAPAATAPEGSQPQEEQTATTERTESASTPGFVVGTERNETIERIMEMGYQREEVERALRAAFNNPDRAVEYLLMGIPENLRQPEPQQQTAAAAEQPSTAATTAEQPAEDDLFAQAAQGGNASSGALGTTGGATDAAQGGPPGSIGLTVEDLLSLRQVVSGNPEAQAPLLENISARYPQLREHIMANPEVFVSMLLEAVGDNMQDVMEGADDMVEGEDIEVTGEAAAAGLGQGEGEGSFQVDYTPEDDQAISRLCELGFERDLVIQVYFACDKNEEAAANILFSDHAD [L276Q]

Variants of: B5
Conditions: with rad4_yeast RAD4, P14736

effect of a mutation on the interaction | Variant
with no effect | MVSLTFKNFKKEKVPLDLEPSNTILETKTKLAQSISCEESQIKLIYSGKVLQDSKTVSECGLKDGDQVVFMVSQKKSTKTKVTEPPIAPESATTPGRENSTEASPSTDASAAPAATAPEGSQPQEEQTATTERTESASTPGFVVGTERNETIERIMEMGYQREEVERALRAAFNNPDRAVEYLLMGIPENLRQPEPQQQTAAAAEQPSTAATTAEQPAEDDLFAQAAQGGNASSGALGTTGGATDAAQGGPPGSIGLTVEDLLSLRQVVSGNPEAQAPLLENISARYPQLREHIMANPEVFVSMLLEAVGDNMQDVMEGADDMVEGEDIEVTGEAAAAGLGQGEGEGSFQVDYTPEDDQAISRLCELGFERDLVIQVYFACDKNEEAAANILFSDHAD [L276Q]
